From the supplement of paper PMC10724198
± gives the standard deviation of the averaged measurements.

What follows are sequences tested on Saccharomyces cerevisiae (assay: protein stability index of tFT-peptide fusion (C-terminal peptide) (PSI (0-1 scale)); higher = more stable (slower turnover)). Settings: genetic background: wild type; temperature: 30 C.
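Further: PSI is a weighted mean of sequencing reads over stability bins, variants kept only with over 10 reads, mCherry proximal and sfGFP distal, peptide attached via GGGS linker.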

| Sequence | protein stability index |
| --- | --- |
| PLTVPLPLALSP | 0.684 ± 0.047 |
| PNHLDPPTLHVN | 0.714 ± 0.021 |
| PNKRLKERGDPS | 0.695 ± 0.086 |
| PNSSLLNLPRPP | 0.744 ± 0.041 |
| PPAAHPFAPFPS | 0.71 ± 0.014 |
| PPACPYPFRPLP | 0.668 ± 0.025 |
| PPACSPSPPRSS | 0.723 ± 0.028 |
| PPAHIFHPPPAR | 0.699 ± 0.081 |
| PPALHRPFPPPP | 0.666 ± 0.016 |
| PPALLAPAAPLP | 0.652 ± 0.07 |
| PPALPRFPACTT | 0.714 ± 0.056 |
| PPALSSNPVIPG | 0.626 ± 0.099 |
| PPAPAPPAPPPL | 0.649 ± 0.027 |
| PPAPLPAPRLAL | 0.709 ± 0.036 |
| PPAPPHPPPLSP | 0.695 ± 0.04 |
| PPAPPPASPGLV | 0.7017 ± 0.0009 |
| PPAPPPCTPPPP | 0.69493 ± 0.0002 |
| PPATLIWAWFFR | 0.67 ± 0.022 |
| PPATPPRPPLPS | 0.675 ± 0.057 |
| PPATRSLSAASP | 0.722 ± 0.0095 |
| PPCAPPPSPLAC | 0.684 ± 0.043 |
| PPCHPPPTTSEK | 0.677 ± 0.032 |
| PPDTPRTQKADT | 0.755 ± 0.029 |
| PPELHTIRARQI | 0.58 ± 0.082 |
| PPFASSPPFIFL | 0.705 ± 0.062 |
| PPFLTTYPHLAP | 0.71 ± 0.031 |

| Sequence | protein stability index |
| --- | --- |
| PPFPLSPLPPPL | 0.71 ± 0.0047 |
| PPFPPLPSPFTS | 0.708 ± 0.018 |
| PPFRSPPRHDPL | 0.662 ± 0.015 |
| PPGLPPIRCPPT | 0.631 ± 0.037 |
| PPGPPRPPPRTP | 0.689 ± 0.0036 |
| PPGSPPSLPPLP | 0.711 ± 0.057 |
| PPHASRAPPFPR | 0.671 ± 0.047 |
| PPHLPPSLSVLP | 0.663 ± 0.057 |
| PPHPLLSPPPFP | 0.821 ± 0.088 |
| PPHPPPPATPCP | 0.682 ± 0.013 |
| PPHPPPPFPPPP | 0.744 ± 0.015 |
| PPHPPPTTVHLA | 0.7052 ± 0.002 |
| PPHPSTPIPPPR | 0.672 ± 0.012 |
| PPHPTPRTLPSP | 0.691 ± 0.0027 |
| PPHSHRSRHPPP | 0.688 ± 0.061 |
| PPHTLTSTIRPN | 0.73 ± 0.019 |
| PPILRPAKSAQG | 0.705 ± 0.024 |
| PPIPPPPPLPPP | 0.621 ± 0.023 |
| PPIPSLPPASFP | 0.69 ± 0.044 |
| PPLGPRALPSPA | 0.67 ± 0.038 |
| PPLGPRARPPPR | 0.734 ± 0.024 |
| PPLLPPPSPPPP | 0.684 ± 0.04 |
| PPLPLPPPLLPP | 0.659 ± 0.059 |
| PPLPPAPLPLPT | 0.639 ± 0.051 |
| PPLPPLLFRSPP | 0.687 ± 0.017 |
| PPLPPLPVPPTL | 0.738 ± 0.11 |

| Sequence | protein stability index |
| --- | --- |
| PPLPPPAPSFPT | 0.684 ± 0.06 |
| PPLPPPQDPRLP | 0.7 ± 0.097 |
| PPLPPPRYLPPT | 0.7124 ± 0.0027 |
| PPLPPSPLPLPP | 0.664 ± 0.023 |
| PPLPPSPPFPPP | 0.653 ± 0.015 |
| PPLPSAPSTYPA | 0.634 ± 0.012 |
| PPLPSMVLQRIY | 0.589 ± 0.0065 |
| PPLQFFLYRSWV | 0.664 ± 0.044 |
| PPLRPAPPPPLS | 0.7 ± 0.12 |
| PPLSAPPPSPSP | 0.702 ± 0.065 |
| PPLSGNLPCFRF | 0.713 ± 0.03 |
| PPLSPPLPPPPS | 0.7188 ± 0.0062 |
| PPLSPPPPPPVP | 0.688 ± 0.066 |
| PPLTHPPPPLYL | 0.694 ± 0.008 |
| PPMALPELPLFP | 0.738 ± 0.071 |
| PPNLLPRPPPRG | 0.559 ± 0.047 |
| PPPALPPPPFPP | 0.591 ± 0.011 |
| PPPALPPPPRPP | 0.604 ± 0.065 |
| PPPAPPPLAPPL | 0.713 ± 0.0086 |
| PPPAPPPPPSSR | 0.667 ± 0.007 |
| PPPAPQTATPHR | 0.714 ± 0.022 |
| PPPCPPPPLSRP | 0.666 ± 0.058 |
| PPPCRPSQFPPL | 0.742 ± 0.015 |
| PPPCSFTRKRQR | 0.664 ± 0.014 |
| PPPDKTPERRPC | 0.644 ± 0.054 |
| PPPFPPPPARSL | 0.474 ± 0.043 |

| Sequence | protein stability index |
| --- | --- |
| PPPFRFPALLPP | 0.6778 ± 0.0007 |
| PPPFSPLPLPPS | 0.71 ± 0.044 |
| PPPGPPLPPGLP | 0.749 ± 0.033 |
| PPPGSPLRPSRL | 0.748 ± 0.12 |
| PPPHLPPPPPTQ | 0.658 ± 0.059 |
| PPPHPALPHPLH | 0.682 ± 0.01 |
| PPPHTRVIPSSP | 0.6763 ± 0.0052 |
| PPPLCLHAPFPP | 0.626 ± 0.045 |
| PPPLDSPPPPPP | 0.664 ± 0.019 |
| PPPLLPVPQPLF | 0.672 ± 0.087 |
| PPPLLSPLSPPP | 0.571 |
| PPPLPAAHFSTP | 0.663 ± 0.022 |
| PPPLPPPPHGVP | 0.6889 ± 0.0066 |
| PPPLPPPPPTRP | 0.616 ± 0.063 |
| PPPLPPSPPHHP | 0.689 ± 0.04 |
| PPPLPRPRSTAL | 0.674 ± 0.043 |
| PPPLTVPLLSPP | 0.662 ± 0.046 |
| PPPLVPPPPSSL | 0.731 ± 0.011 |
| PPPNPPATTTTP | 0.6685 ± 0.0012 |
| PPPPALLPPPPA | 0.781 ± 0.27 |
| PPPPAPPLPPPP | 0.707 ± 0.039 |
| PPPPFWPLSPAL | 0.713 ± 0.039 |
| PPPPGCLPRPAS | 0.699 ± 0.021 |
| PPPPHPPSPSLP | 0.664 ± 0.1 |
| PPPPHTPPLPRS | 0.757 ± 0.048 |
| PPPPLLPRTPPH | 0.54 ± 0.044 |

| Sequence | protein stability index |
| --- | --- |
| PPPPLLPSPFPP | 0.653 ± 0.031 |
| PPPPLPATPGAS | 0.6857 ± 0.0018 |
| PPPPLPPPPSPL | 0.653 ± 0.078 |
| PPPPLPPRPPPP | 0.704 ± 0.026 |
| PPPPLPRPPPPP | 0.615 ± 0.061 |
| PPPPLSLPPVPL | 0.736 ± 0.012 |
| PPPPLVPLPASP | 0.688 ± 0.072 |
| PPPPPAPPALPP | 0.6734 ± 0.001 |
| PPPPPAPPLSLP | 0.61 ± 0.01 |
| PPPPPARPSVPP | 0.673 ± 0.077 |
| PPPPPASPPSAP | 0.605 ± 0.063 |
| PPPPPDAPRSSL | 0.7043 ± 0.0066 |
| PPPPPHPALPVP | 0.734 ± 0.016 |
| PPPPPIPRPPHA | 0.73 ± 0.03 |
| PPPPPLPLCRRP | 0.756 ± 0.06 |
| PPPPPLPLPPPF | 0.697 ± 0.023 |
| PPPPPLPPAPPP | 0.558 ± 0.022 |
| PPPPPLPPLPCP | 0.695 ± 0.03 |
| PPPPPLPPPPTP | 0.652 ± 0.058 |
| PPPPPLPPQLSH | 0.756 ± 0.011 |
| PPPPPLPSPTPP | 0.735 ± 0.024 |
| PPPPPLPTPPPS | 0.653 ± 0.036 |
| PPPPPLSPPSLV | 0.725 ± 0.02 |
| PPPPPPCSPATS | 0.747 ± 0.14 |
| PPPPPPLPPPPL | 0.671 ± 0.019 |
| PPPPPPLSVPPL | 0.695 ± 0.077 |

| Sequence | protein stability index |
| --- | --- |
| PPPPPPPHHSPP | 0.722 ± 0.047 |
| PPPPPPPPPSPP | 0.704 ± 0.0066 |
| PPPPPPPPPVLP | 0.675 ± 0.0081 |
| PPPPPPPSLLLP | 0.828 ± 0.041 |
| PPPPPPPTPPPP | 0.673 ± 0.014 |
| PPPPPPRPLAPS | 0.679 ± 0.029 |
| PPPPPPRPPSAH | 0.708 ± 0.087 |
| PPPPPPRPPSSP | 0.694 ± 0.022 |
| PPPPPPSLPPPS | 0.714 ± 0.015 |
| PPPPPPSLPYLL | 0.771 ± 0.042 |
| PPPPPPSPLTLP | 0.775 ± 0.086 |
| PPPPPSAPSPLP | 0.665 ± 0.05 |
| PPPPPSPPPPPH | 0.704 ± 0.0074 |
| PPPPPYPPCIPL | 0.695 ± 0.048 |
| PPPPRDPLPLPR | 0.677 ± 0.018 |
| PPPPRPAPSAPY | 0.676 ± 0.045 |
| PPPPRPASPGSP | 0.622 ± 0.065 |
| PPPPRPLPLPTT | 0.751 ± 0.056 |
| PPPPRPLPTSRP | 0.689 ± 0.012 |
| PPPPRPPPALLP | 0.736 ± 0.021 |
| PPPPRPPPQSPS | 0.724 ± 0.021 |
| PPPPRRAPPPGT | 0.699 ± 0.021 |
| PPPPRSPPHPLL | 0.69 ± 0.013 |
| PPPPRSPVCLPL | 0.792 ± 0.011 |
| PPPPSLPPPSRP | 0.7125 ± 0.0063 |
| PPPPSPGPASPA | 0.716 ± 0.045 |

| Sequence | protein stability index |
| --- | --- |
| PPPPSTRPSYSP | 0.756 ± 0.23 |
| PPPPTALPHPDL | 0.604 ± 0.012 |
| PPPPTPHRSPLL | 0.598 ± 0.029 |
| PPPPTQPPARPP | 0.68 ± 0.014 |
| PPPPTRSRRNLP | 0.705 ± 0.047 |
| PPPPVPPLYLPP | 0.684 ± 0.017 |
| PPPRLAPTLLPA | 0.5999 ± 0.0046 |
| PPPRPDPPSLLD | 0.545 ± 0.0085 |
| PPPRPHTPPQLA | 0.708 ± 0.019 |
| PPPRPPLALSPP | 0.646 ± 0.032 |
| PPPRPPRPPCPF | 0.732 ± 0.059 |
| PPPRPSPLSSSL | 0.678 ± 0.094 |
| PPPRRPPSPPSP | 0.729 ± 0.021 |
| PPPRTPGCPIPP | 0.5737 ± 0.0032 |
| PPPSLPATPIPP | 0.656 ± 0.055 |
| PPPSPAPCPPSS | 0.777 ± 0.043 |
| PPPSPDPPLTPF | 0.723 ± 0.06 |
| PPPSPFLPSPFR | 0.7066 ± 0.0061 |
| PPPSPPPLPDPH | 0.697 ± 0.079 |
| PPPSPPSPHAPP | 0.643 ± 0.1 |
| PPPSRPLLPFPP | 0.706 ± 0.012 |
| PPPSRTPPLNPR | 0.741 ± 0.096 |
| PPPSSILSPSTS | 0.659 ± 0.046 |
| PPPSSPPPLPLP | 0.681 ± 0.017 |
| PPPTAPPTTTTR | 0.696 ± 0.055 |
| PPPTAPSLSSPS | 0.688 ± 0.047 |

| Sequence | protein stability index |
| --- | --- |
| PPPTPPRPPPLP | 0.7059 ± 0.0022 |
| PPPTPRIPRPLR | 0.717 ± 0.02 |
| PPPTPRRPPCHT | 0.668 ± 0.045 |
| PPPTVRLSCVPP | 0.794 ± 0.031 |
| PPPVLPPPPVSP | 0.719 ± 0.03 |
| PPPVLSPRFPVL | 0.731 ± 0.14 |
| PPPVRFPSLPLA | 0.8189 ± 0.0061 |
| PPPVVLPSTLLS | 0.6665 ± 0.0014 |
| PPRAHQSCPCRR | 0.719 ± 0.055 |
| PPRALPPPLPLP | 0.72 ± 0.083 |
| PPRCHPPPPFPP | 0.6466 ± 0.0047 |
| PPRGCLYFSRPP | 0.739 ± 0.095 |
| PPRGPPPPPADP | 0.7 ± 0.022 |
| PPRHPSPGLVPT | 0.722 ± 0.04 |
| PPRLLATVTRGT | 0.654 ± 0.025 |
| PPRLVPPLPPPL | 0.635 ± 0.048 |
| PPRPAPTSFKRG | 0.718 ± 0.037 |
| PPRPPPLLPRTL | 0.707 ± 0.014 |
| PPRPPPPPPAPL | 0.688 ± 0.019 |
| PPRPPPPRPPPL | 0.742 ± 0.028 |
